Test results published in patent publication US20230235013A1 (MABSOLVE, published 2023).
Positions count from the first letter of the chain named. Numbers in names are those of the source.

T1: mouse FcγRI (Sino Biological Cat. No. 50086-M08H) (mouse, UniProt P26151 25-297)
T1 construct: bought
T1 sequence (looked up): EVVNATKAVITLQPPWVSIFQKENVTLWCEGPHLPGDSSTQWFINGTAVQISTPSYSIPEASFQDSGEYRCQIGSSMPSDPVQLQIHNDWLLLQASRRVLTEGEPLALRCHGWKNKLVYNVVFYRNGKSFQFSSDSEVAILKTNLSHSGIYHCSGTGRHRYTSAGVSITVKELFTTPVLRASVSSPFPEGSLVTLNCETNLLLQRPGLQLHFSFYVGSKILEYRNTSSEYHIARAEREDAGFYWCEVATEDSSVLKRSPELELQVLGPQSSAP

T2: human FcγRIIB (Sino Biological Cat. No. 10259-H08H) (human, UniProt P31994 43-217)
T2 construct: bought
T2 sequence (looked up): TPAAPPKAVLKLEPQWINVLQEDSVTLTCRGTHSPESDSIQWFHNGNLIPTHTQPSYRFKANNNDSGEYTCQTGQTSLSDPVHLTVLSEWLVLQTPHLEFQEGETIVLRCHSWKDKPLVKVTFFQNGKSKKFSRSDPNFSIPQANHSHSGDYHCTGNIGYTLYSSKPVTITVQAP

T3: human FcγRIIA (R131, Sino Biological Cat. No. 10374-H08H) (human, UniProt P12318 34-218)
T3 construct: bought; also called human FcγRIIa R131 allele; FcγRII allele R131
T3 sequence (looked up): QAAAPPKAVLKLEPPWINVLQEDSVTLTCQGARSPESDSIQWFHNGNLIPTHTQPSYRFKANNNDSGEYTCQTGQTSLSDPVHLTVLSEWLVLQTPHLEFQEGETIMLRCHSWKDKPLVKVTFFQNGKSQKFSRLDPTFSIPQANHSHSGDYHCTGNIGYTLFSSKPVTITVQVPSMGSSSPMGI

B1: anti-CD3 (muromonab variable regions) human IgG1 wild type reference (antibody)
heavy: not shown
light: QIVLTQSPAIMSASPGEKVTMTCSASSSVSYMNWYQQKSGTSPKRWIYDTSKLASGVPAHFRGSGSGTSYSLTISGMEAEDAATYYCQQWSSNPFTFGSGTKLEIKRTVAAPSVFIFPPSDEQLKSGTASVVCLLNNFYPREAKVQWKVDNALQSGNSQESVTEQDSKDSTYSLSSTLTLSKADYEKHKVYACEVTHQGLSSPVTKSFNRGEC
notes: also called 3-1; wild-type CD3 antibody
B2: anti-CD3 human IgG1 L234S/L235T/G236R (antibody)
heavy: not shown
light: B1 light
notes: also called 3-52; copies: 2 + 2
B3: anti-CD3 human IgG1 L234T/L235Q/G236R (antibody)
heavy: not shown
light: B1 light
notes: also called 3-60; copies: 2 + 2
B4: anti-CD3 human IgG1 N297Q (aglycosyl) (antibody)
heavy: not shown
light: B1 light
notes: also called 3-67; copies: 2 + 2
B5: anti-CD3 human IgG1 L234G/L235S/G236R (antibody)
heavy: not shown
light: B1 light
notes: also called 3-19; copies: 2 + 2
B6: anti-CD3 human IgG1 L234A/L235A/P329G (LALAPG reference) (antibody)
heavy: not shown
light: B1 light
notes: also called 3-66; copies: 2 + 2
B7: anti-CD3 human IgG1 L234T/L235T/G236R (antibody)
heavy: not shown
light: B1 light
notes: also called 3-63; copies: 2 + 2
B8: anti-CD3 human IgG1 L234A/L235A (LALA) (antibody)
heavy: not shown
light: B1 light
notes: also called 3-65; copies: 2 + 2
B9: anti-CD3 human IgG1 L234S/L235V/G236R (antibody)
heavy: not shown
light: B1 light
notes: also called 3-53; copies: 2 + 2
B10: anti-CD52 human IgG1 L234S/L235T/G236R (antibody)
heavy: QVQLQESGPGLVRPSQTLSLTCTVSGFTFTDFYMNWVRQPPGRGLEWIGFIRDKAKGYTTEYNPSVKGRVTMLVDTSKNQFSLRLSSVTAADTAVYYCAREGHTAAPFDYWGQGSLVTVSSASTKGPSVFPLAPSSKSTSGGTAALGCLVKDYFPEPVTVSWNSGALTSGVHTFPAVLQSSGLYSLSSVVTVPSSSLGTQTYICNVNHKPSNTKVDKKVEPKSCDKTHTCPPCPAPESTRGPSVFLFPPKPKDTLMISRTPEVTCVVVDVSHEDPEVKFNWYVDGVEVHNAKTKPREEQYNSTYRVVSVLTVLHQDWLNGKEYKCKVSNKALPAPIEKTISKAKGQPREPQVYTLPPSRDELTKNQVSLTCLVKGFYPSDIAVEWESNGQPENNYKTTPPVLDSDGSFFLYSKLTVDKSRWQQGNVFSCSVMHEALHNHYTQKSLSLSPGK
light: not shown
notes: also called 4-52; copies: 2 + 2
B11: anti-CD52 human IgG1 L234S/L235V/G236R (antibody)
heavy: B10 heavy with T239V
light: not shown
notes: also called 4-53; copies: 2 + 2
B12: anti-CD52 human IgG1 L234G/L235S/G236R (antibody)
heavy: B10 heavy with S238G, T239S
light: not shown
notes: also called 4-19; copies: 2 + 2
B13: anti-CD52 human IgG1 L234T/L235T/G236R (antibody)
heavy: B10 heavy with S238T
light: not shown
notes: also called 4-63; copies: 2 + 2
B14: anti-CD52 human IgG1 L234T/L235Q/G236R (antibody)
heavy: B10 heavy with S238T, T239Q
light: not shown
notes: also called 4-60; copies: 2 + 2

The binders below were run against T4, CD3D/CD3E heterodimer (Sino Biologicals Cat. No. CT038-H2508H) (human, UniProt P04234 22-105; P07766 23-126) (assay: ELISA, antigen coated, antibody 5 µg/mL).
T4 construct: bought; also called CD3 antigen; human CD3

Row | Binder | Mean Absorbance
1 | B1 | 1.01 absorbance
2 | B2 | 1.38 absorbance
3 | B3 | 1.33 absorbance
4 | B4 | 0.749 absorbance
5 | B5 | 1.24 absorbance
6 | B6 | 1.13 absorbance
7 | B7 | 1.04 absorbance
8 | B8 | 1.07 absorbance
9 | B9 | 1.25 absorbance

The binders below were run against T5, Sheep Fc-CD52 fusion protein (Absolute Antibody Cat. No. PR00205) (human, UniProt P31358 25-36) (assay: ELISA, antigen coated, antibody 5 µg/mL).
T5 construct: bought; also called CD52 antigen; human CD52; not shown: sheep Fc

Row | Binder | Mean Absorbance
10 | B1 | 0.006 absorbance
11 | B10 | 1.44 absorbance
12 | B11 | 1.23 absorbance
13 | B12 | 1.13 absorbance
14 | B13 | 1.48 absorbance
15 | B14 | 1.35 absorbance

What follows are binders tested against human FcγRIIIa V158 allele (human, UniProt P08637 17-208, limits assumed) (assay: SPR, captured His-receptor).
Chain of human FcγRIIIa V158 allele (P08637 17-208 F176V limits assumed): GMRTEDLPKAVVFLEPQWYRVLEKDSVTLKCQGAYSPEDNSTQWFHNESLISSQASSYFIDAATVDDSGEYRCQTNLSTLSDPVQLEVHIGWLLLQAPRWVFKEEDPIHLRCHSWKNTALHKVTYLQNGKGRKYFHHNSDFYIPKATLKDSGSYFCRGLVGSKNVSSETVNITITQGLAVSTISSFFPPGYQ

Row | Binder | binding result
16 | B10 | no binding (tested: 100 µg/mL)
17 | B11 | no binding (tested: 100 µg/mL)
18 | B12 | no binding (tested: 100 µg/mL)
19 | B13 | no binding (tested: 100 µg/mL)
20 | B14 | no binding (tested: 100 µg/mL)

What follows are binders tested against T6, Histidine-tagged recombinant human FcγRI (CD64) (human, UniProt P12314 16-288) (assay: SPR, captured His-receptor).
T6 construct: bought; also called Sino Biological Cat. No. 12056-H08H

Row | Binder | binding result
21 | B2 | no binding (tested: 100 µg/mL)
22 | B3 | no binding (tested: 100 µg/mL)
23 | B4 | binds
24 | B5 | no binding (tested: 100 µg/mL)
25 | B6 | binds
26 | B7 | no binding (tested: 100 µg/mL)
27 | B8 | binds
28 | B9 | no binding (tested: 100 µg/mL)
29 | B10 | no binding (tested: 100 µg/mL)
30 | B11 | no binding (tested: 100 µg/mL)
31 | B12 | no binding (tested: 100 µg/mL)
32 | B13 | no binding (tested: 100 µg/mL)
33 | B14 | no binding (tested: 100 µg/mL)

Each binder was assayed against T7, human FcγRIIIA (F158, Sino Biological Cat. No. 10389-H08H) (human, UniProt P08637 17-208) (assay: SPR, captured His-receptor).
T7 construct: bought; also called human FcγRIIIa F158 allele
T7 sequence (P08637 17-208 limits assumed): as the sequence (P08637 17-208 F176V limits assumed) above, with V160F counted along it

Row | Binder | binding result
34 | B10 | no binding (tested: 100 µg/mL)
35 | B11 | no binding (tested: 100 µg/mL)
36 | B12 | no binding (tested: 100 µg/mL)
37 | B13 | no binding (tested: 100 µg/mL)
38 | B14 | no binding (tested: 100 µg/mL)

These binders were tested against T8, human FcγRIIIB (NA2 allotype, Sino Biological Cat. No. 11046-H08H) (human, UniProt O75015 17-200) (assay: SPR, captured His-receptor).
T8 construct: bought; also called human FcγRIIIb NA2 allele

Row | Binder | binding result
39 | B2 | no binding (tested: 100 µg/mL)
40 | B3 | no binding (tested: 100 µg/mL)
41 | B5 | no binding (tested: 100 µg/mL)
42 | B7 | no binding (tested: 100 µg/mL)
43 | B9 | no binding (tested: 100 µg/mL)
44 | B10 | no binding (tested: 100 µg/mL)
45 | B11 | no binding (tested: 100 µg/mL)
46 | B12 | no binding (tested: 100 µg/mL)
47 | B13 | no binding (tested: 100 µg/mL)
48 | B14 | no binding (tested: 100 µg/mL)

These binders were tested against T1, mouse FcγRI (Sino Biological Cat. No. …) (assay: SPR, captured His-receptor).

Row | Binder | binding result
49 | B2 | no binding (tested: 100 µg/mL)
50 | B3 | no binding (tested: 100 µg/mL)
51 | B4 | binds
52 | B5 | no binding (tested: 100 µg/mL)
53 | B7 | no binding (tested: 100 µg/mL)
54 | B9 | no binding (tested: 100 µg/mL)
55 | B10 | no binding (tested: 100 µg/mL)
56 | B11 | no binding (tested: 100 µg/mL)
57 | B12 | no binding (tested: 100 µg/mL)
58 | B13 | no binding (tested: 100 µg/mL)
59 | B14 | no binding (tested: 100 µg/mL)

What follows are binders tested against T2, human FcγRIIB (Sino Biological Cat. No. …) (assay: SPR, captured His-receptor).

Row | Binder | binding result
60 | B2 | no binding (tested: 100 µg/mL)
61 | B3 | no binding (tested: 100 µg/mL)
62 | B5 | no binding (tested: 100 µg/mL)
63 | B7 | no binding (tested: 100 µg/mL)
64 | B9 | no binding (tested: 100 µg/mL)
65 | B10 | no binding (tested: 100 µg/mL)
66 | B11 | no binding (tested: 100 µg/mL)
67 | B12 | no binding (tested: 100 µg/mL)
68 | B13 | no binding (tested: 100 µg/mL)
69 | B14 | no binding (tested: 100 µg/mL)

What follows are binders tested against T3, human FcγRIIA (R131, Sino Biological …) (assay: SPR, captured His-receptor).

Row | Binder | binding result
70 | B2 | no binding (tested: 100 µg/mL)
71 | B3 | no binding (tested: 100 µg/mL)
72 | B5 | no binding (tested: 100 µg/mL)
73 | B7 | no binding (tested: 100 µg/mL)
74 | B8 | binds
75 | B9 | no binding (tested: 100 µg/mL)
76 | B10 | no binding (tested: 100 µg/mL)
77 | B11 | no binding (tested: 100 µg/mL)
78 | B12 | no binding (tested: 100 µg/mL)
79 | B13 | no binding (tested: 100 µg/mL)
80 | B14 | no binding (tested: 100 µg/mL)
